Data published in patent publication US20190367606A1 (CENTRE FOR DRUG RESEARCH AND DEVELOPMENT, published 2019).

Tests used:
[1] = biological target: T1, human podocalyxin (human, UniProt O00592 23-558); test: cross competition FACS, MDA-MB-231 cells; row antibody unlabelled 25 ug/mL first; competitor (detected): B-3G2.2 5 ug/mL
T1 construct: also called hPodo; hPodocalyxin
T1 sequence: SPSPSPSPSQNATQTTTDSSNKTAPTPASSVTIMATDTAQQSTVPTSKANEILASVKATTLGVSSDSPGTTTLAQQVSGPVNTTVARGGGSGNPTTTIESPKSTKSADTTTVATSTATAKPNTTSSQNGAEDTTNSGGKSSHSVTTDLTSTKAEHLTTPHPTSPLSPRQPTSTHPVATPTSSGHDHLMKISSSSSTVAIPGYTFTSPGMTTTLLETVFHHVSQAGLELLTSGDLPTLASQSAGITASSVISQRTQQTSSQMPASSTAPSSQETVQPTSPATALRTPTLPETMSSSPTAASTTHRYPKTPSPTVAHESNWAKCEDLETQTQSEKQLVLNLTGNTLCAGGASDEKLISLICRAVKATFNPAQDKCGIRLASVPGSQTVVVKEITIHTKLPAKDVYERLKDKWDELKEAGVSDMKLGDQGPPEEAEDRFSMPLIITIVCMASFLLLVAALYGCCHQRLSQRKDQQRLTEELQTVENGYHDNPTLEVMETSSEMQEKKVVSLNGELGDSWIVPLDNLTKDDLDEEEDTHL

[2] = biological target: T1, human podocalyxin; test: cross competition FACS, MDA-MB-231 cells; row antibody unlabelled 25 ug/mL first; competitor (detected): B-Ova 12 5 ug/mL (control)
[3] = biological target: T1, human podocalyxin; test: cross competition FACS, MDA-MB-231 cells; row antibody unlabelled 25 ug/mL first; competitor (detected): biotinylated Rb/Hu Podo83 5 ug/mL
[4] = biological target: T1, human podocalyxin; test: cross competition FACS, MDA-MB-231 cells; row antibody unlabelled 25 ug/mL first; competitor (detected): B-mlgG1 5 ug/mL (control)
[5] = biological target: T1, human podocalyxin; test: FACS, isotype control, hPodo/MDA (MDA-MB-231 cells transfected with human Podocalyxin cDNA)
[6] = biological target: T1, human podocalyxin; test: kinetic exclusion assay (KinExA 3200), MDA-MB-231 cells
Description: The concentration dependence of free anti-podocalyxin antibody as a function of MDA-MB231 cell number was determined using a KinExA 3200 instrument (Sapidyne Instruments). Briefly, MDA-MB-231 cells, which express endogenous podocalyxin, were titrated 1:2 from 10×10⁶ cells/mL down 12 steps, and incubated with a fixed concentration of anti-podocalyxin antibodies. MDA-MB231 cells and cell bound antibodies were then isolated by centrifugation. Supernatant containing free, unbound antibody was then transferred to a new tube. The supernatant containing free unbound antibody was passed over the column containing PMMA beads coated with a goat anti-IgG-Fc capture antibody. The amount of free antibody captured on the PMMA beads was then measured using a goat anti-IgG-Fc-A647. This process was repeated for every cell concentration. For each sample assayed a new column of PMMA beads with the goat anti-IgG-Fc capture antibody was packed. The concentration of free antibody over the entire 12 step dilution series was then used to determine the antibody Kd's using the standard Kd template in the KineExA Pro Software (Sapidyne Instruments).

[7] = biological target: T1, human podocalyxin; test: flow cytometry, supernatant 1:5, hPodo/MDA-MB-231 transient transfectants
Description: (§1) The following antibodies were transiently transfected in 293HEK cells, transfected cells were incubated for 96 hours, antibody containing supernatant was then serially titrated in FACS sample buffer. The following supernatants were used as test samples:
(§2) MDA transient transfectants were established as essentially described above in Example 1. MDA transient transfectants and MDA-MB-231 cells were seeded in 96-well v bottom plates at 75,000 cells/well. Cells were pelleted by centrifugation at 400 g for 3 min. Supernatant was removed. The cell pellets were resuspended in 20 μl of the antibody or control supernatants. The plate was incubated on ice for 1 hour.
(§3) The cells were washed by adding 200 μl FACS buffer to dilute unbound antibody. The plate was centrifuged at 400 g for 3 min to pellet cells. The supernatant was removed and repeated. The cell pellets were resuspended in 25 μl of either goat anti-Hu IgG Fc-Alexa647, goat anti-Mouse IgG Fc-Alexa647, or goat anti-rabbit IgG0Fc-A647 (2 μg/ml) and 7A.A.D (2.5 μg/ml). The plates were incubated on ice for 0.5 hours. The wash procedure was again repeated 2×. The cell pellets were finally resuspended in 75 μl FACS buffer and read on the HTFC™ Screening System (IntelliCyt Corporation) (3 sec sip, 1.5 up time) and analyzed on the HyperView® software (IntelliCyt Corporation).

[8] = biological target: T1, human podocalyxin; test: flow cytometry, supernatant 2:15 (so in the source), MDA-MB-231 cells
Description: as §1, §2, §3

[9] = biological target: T1, human podocalyxin; test: flow cytometry, supernatant Neat, hPodo/MDA-MB-231 transient transfectants
Description: as §1, §2, §3

[10] = biological target: T1, human podocalyxin; test: flow cytometry, supernatant 1:125, hPodo/MDA-MB-231 transient transfectants
Description: as §1, §2, §3

[11] = biological target: T1, human podocalyxin; test: flow cytometry, supernatant 1:125, MDA-MB-231 cells
Description: as §1, §2, §3

[12] = biological target: T1, human podocalyxin; test: flow cytometry, supernatant 2:15 (so in the source), hPodo/MDA-MB-231 transient transfectants
Description: as §1, §2, §3

[13] = biological target: T1, human podocalyxin; test: flow cytometry, supernatant Neat, MDA-MB-231 cells
Description: as §1, §2, §3

[14] = biological target: T1, human podocalyxin; test: flow cytometry, supernatant 1:5, MDA-MB-231 cells
Description: as §1, §2, §3

[15] = biological target: T1, human podocalyxin; test: flow cytometry titration on 293-6E cells (endogenous podocalyxin), 48 hours at 4 C
Description: (§4) The affinities of huPodo 83 1:1 and huPodo 83 2:1 antibodies were determined against endogenously expressed podocalyxin on 293 HEK cells. 293-6E cells were seeded in 96-well v bottom plates at 100,000 cells/well. The cells were pelleted at 400 g for 3 min and the supernatant was discarded. The cells were placed on ice and antibody 1:3 titrations were prepared using ice cold medium. The cells were resuspended in the prepared antibody titrations at 25 μl/well and incubated at 4° C. for either 24 or 48 hours. 200 μl 1% FBS/PGS (FACS buffer) was added to each well. The cells were pelleted at 400 g for 3 min and supernatant removed. The wash was repeated 2 more times. The cells were resuspended in goat anti-human IgGFc-A647 (2 μg/ml)+2.5 μg/ml 7AAD and incubated on ice for 30 min. The cells were washed as above and resuspended in 50 μl FACS buffer. The cells were analyzed by flow cytometry using the HTFC™ Screening System (IntelliCyt Corporation) (3 sec sip, 1.5 sec up) and the C6 cytometer (Becton Dickenson).

[16] = biological target: T1, human podocalyxin; test: flow cytometry titration on 293-6E cells (endogenous podocalyxin), 24 hours at 4 C
Description: as §4

Molecule MAB1658 (R&D Systems) (antibody) has an FACS signal of the biotinylated antibody named under assay [1] of 26900, an FACS signal of the biotinylated antibody named under assay [2] of 476 and an FACS signal of the biotinylated antibody named under assay [3] of 127000. The FACS signal of the biotinylated antibody named under assay [4] was 431.

In the case of “3D3 (Santa Cruz Biotechnology sc23904) (antibody)”, the FACS signal of the biotinylated antibody named under assay [1] is reported as 26400, the FACS signal of the biotinylated antibody named under assay [2] is reported as 450 and the FACS signal of the biotinylated antibody named under assay [3] is reported as 135000. The FACS signal of the biotinylated antibody named under assay [4] was 419.

hlgG1 (antibody) was tested, and the FACS signal (name not given) [5] was 544.

hlgG2 (antibody) was tested, and the FACS signal (name not given) [5] was 533.

B1: mouse anti-podocalyxin antibody 3G2 (Ab-2) (antibody, V domains shown)
VH: EVQLQQSGPELVKPGASVKMSCKASGYTFTSYVMHWVKQKPGQGLEWIGYIHPYNDGTNYNEKFKGKATLTSDKSSNTAYMELSSLTSEDSAVYYCARSWDWYFDVWGAGTTVTVSS
VL: QIVLTQSPAIMSASPGEKVTMTCSANSNVRYIHWHQQKSGTSPKRWIYDTSKLSSGVPARFSGSGSGTSYSLTISNMEAEDAATYYCQQWISNPLTFGAGTKLELK
notes: also called 3G2.2; Podo-3G2.2
Molecule B1 has a Kd [6] of 3.34 nM.

B2: Rabbit Podo 83 (Parental rabbit antibody) (antibody, V domains shown)
VH: QSLAESGGRLVTPGTPLTLTCTASGIDLSSYAMGWVRQAPGKGLEYIGFIYASGSIFYASWAKGRFTISKTSSTTVDLKMTSLTTEDTATYFCARAGYYFGGNYDLNLWGQGTLVTVSS
VL: DIVLTQTPASVEVAVGGTVTIKCQASQSISNYLAWYQRKPGQPPRLLIYRASTLASGVSSRFKGSGSGTQFTLTISGVECADAATYYCQQGYVSNNLDNIFGGGTEVVVK
notes: Rabbit constant regions; also called Rb Podo 83 (Rb Constant Region); rabbit Podo-83 (Ab-1)
With B2 the “flow cytometry fluorescence (name not given)” value [7] was 139000, the “flow cytometry fluorescence (name not given)” value [8] was 53700 and the “flow cytometry fluorescence (name not given)” value [9] was 90800. The “flow cytometry fluorescence (name not given)” value [10] was 24100, the “flow cytometry fluorescence (name not given)” value [11] was 15500 and the “flow cytometry fluorescence (name not given)” value [12] was 89700. The “flow cytometry fluorescence (name not given)” value [13] was 179000 and the “flow cytometry fluorescence (name not given)” value [14] was 129000.

B3: huPodo 83 1:1 (humanized anti-podocalyxin antibody 83, version 1) (antibody, V domains shown)
VH: EVQLVESGGGLVQPGGSLRLSCAASGIDLSSYAMGWVRQAPGKGLEWVSFIYASGSIFYASWAKGRFTISRDNSKNTLYLQMNSLRAEDTAVYYCARAGYYFGGNYDLNLWGQGTLVTVSS
VL: DIQMTQSPSSLSASVGDRVTITCQASQSISNYLAWYQQKPGKVPKLLIYRASTLASGVPSRFSGSGSGTDFTLTISSLQPEDVATYYCQQGYVSNNLDNIFGGGTEVVVK
notes: Cloned into pTT5 plasmids with human IgG heavy chain and human Ig kappa constant regions
In the case of B3, the “flow cytometry fluorescence (name not given)” value [7] is reported as 128000, the IC50 [15] is reported as 0.0355 µg/mL and the “flow cytometry fluorescence (name not given)” value [8] is reported as 91500. For the same molecule, the “flow cytometry fluorescence (name not given)” value [9] was 124000, the “flow cytometry fluorescence (name not given)” value [10] was 61600 and the “flow cytometry fluorescence (name not given)” value [11] was 39400. For the same molecule, the Kd [6] was 0.26 nM, the “flow cytometry fluorescence (name not given)” value [12] was 157000 and the “flow cytometry fluorescence (name not given)” value [13] was 125000. For the same molecule, the IC50 [16] was 0.0331 µg/mL and the “flow cytometry fluorescence (name not given)” value [14] was 112000.

B4: Rb VH, Vk 1:1 (Podo 83 rabbit VH, human CH1-CH3, human Ck, and humanized Vk) (antibody, V domains shown)
VH: QSLAESGGRLVTPGTPLTLTCTASGIDLSSYAMGWVRQAPGKGLEYIGFIYASGSIFYASWAKGRFTISKTSSTTVDLKMTSLTTEDTATYFCARAGYYFGGNYDLNLWGQGTLVTVSS
VL: DIQMTQSPSSLSASVGDRVTITCQASQSISNYLAWYQQKPGKVPKLLIYRASTLASGVPSRFSGSGSGTDFTLTISSLQPEDVATYYCQQGYVSNNLDNIFGGGTEVVVK
notes: Human CH1-CH3 and human Ck
In the case of B4, the “flow cytometry fluorescence (name not given)” value [7] is reported as 124000, the “flow cytometry fluorescence (name not given)” value [8] is reported as 94800 and the “flow cytometry fluorescence (name not given)” value [9] is reported as 137000. For the same molecule, the “flow cytometry fluorescence (name not given)” value [10] was 74500, the “flow cytometry fluorescence (name not given)” value [11] was 47700 and the “flow cytometry fluorescence (name not given)” value [12] was 76400. The “flow cytometry fluorescence (name not given)” value [13] was 130000 and the “flow cytometry fluorescence (name not given)” value [14] was 115000.

B5: huPodo 83 2:1 (humanized anti-podocalyxin antibody 83, version 2) (antibody, V domains shown)
VH: EVQLVESGGGLVQPGGSLRLSCAASGIDLSSYAMGWVRQAPGKGLEWVSFIYASGSIFYASWAKGRFTISRDNSNTLYLQMNSLRAEDTAVYYCARAGYYFGGNYDLNLWGQGTLVTVSS
VL: DIQMTQSPSSLSASVGDRVTITCQASQSISNYLAWYQQKPGKVPKLLIYRASTLASGVPSRFSGSGSGTDFTLTISSLQPEDVATYYCQQGYVSNNLDNIFGGGTEVVVK
notes: as for B3
B5 was tested, and the “flow cytometry fluorescence (name not given)” value [7] was 108000, the IC50 [15] was 0.052 µg/mL and the “flow cytometry fluorescence (name not given)” value [8] was 67200. The “flow cytometry fluorescence (name not given)” value [9] was 139000, the “flow cytometry fluorescence (name not given)” value [10] was 37700 and the “flow cytometry fluorescence (name not given)” value [11] was 22300. The “flow cytometry fluorescence (name not given)” value [12] was 79400, the “flow cytometry fluorescence (name not given)” value [13] was 123000 and the IC50 [16] was 0.0519 µg/mL. The “flow cytometry fluorescence (name not given)” value [14] was 105000.
